T1: Human CEACAM8 (human, UniProt P31997 35-320, limits assumed)
T1 sequence (looked up): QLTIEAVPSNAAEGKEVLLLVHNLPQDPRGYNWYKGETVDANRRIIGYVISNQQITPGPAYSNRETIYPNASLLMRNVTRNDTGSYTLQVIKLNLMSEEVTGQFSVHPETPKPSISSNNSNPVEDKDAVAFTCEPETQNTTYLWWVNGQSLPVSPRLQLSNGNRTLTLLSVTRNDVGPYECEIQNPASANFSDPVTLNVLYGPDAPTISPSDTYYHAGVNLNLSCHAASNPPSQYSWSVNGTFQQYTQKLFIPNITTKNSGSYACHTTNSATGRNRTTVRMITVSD

T2: human FcγRIIA H131 (human, UniProt P12318 34-218, limits assumed)
T2 sequence (looked up): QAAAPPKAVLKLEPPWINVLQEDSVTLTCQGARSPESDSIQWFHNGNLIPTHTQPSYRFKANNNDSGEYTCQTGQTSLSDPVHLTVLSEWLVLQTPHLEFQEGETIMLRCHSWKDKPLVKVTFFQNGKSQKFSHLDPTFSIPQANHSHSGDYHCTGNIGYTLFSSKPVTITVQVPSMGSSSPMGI

T3: Human CEACAM5 (K398) (human, UniProt P06731 35-685, limits assumed)
T3 construct: also called K398 allele
T3 sequence: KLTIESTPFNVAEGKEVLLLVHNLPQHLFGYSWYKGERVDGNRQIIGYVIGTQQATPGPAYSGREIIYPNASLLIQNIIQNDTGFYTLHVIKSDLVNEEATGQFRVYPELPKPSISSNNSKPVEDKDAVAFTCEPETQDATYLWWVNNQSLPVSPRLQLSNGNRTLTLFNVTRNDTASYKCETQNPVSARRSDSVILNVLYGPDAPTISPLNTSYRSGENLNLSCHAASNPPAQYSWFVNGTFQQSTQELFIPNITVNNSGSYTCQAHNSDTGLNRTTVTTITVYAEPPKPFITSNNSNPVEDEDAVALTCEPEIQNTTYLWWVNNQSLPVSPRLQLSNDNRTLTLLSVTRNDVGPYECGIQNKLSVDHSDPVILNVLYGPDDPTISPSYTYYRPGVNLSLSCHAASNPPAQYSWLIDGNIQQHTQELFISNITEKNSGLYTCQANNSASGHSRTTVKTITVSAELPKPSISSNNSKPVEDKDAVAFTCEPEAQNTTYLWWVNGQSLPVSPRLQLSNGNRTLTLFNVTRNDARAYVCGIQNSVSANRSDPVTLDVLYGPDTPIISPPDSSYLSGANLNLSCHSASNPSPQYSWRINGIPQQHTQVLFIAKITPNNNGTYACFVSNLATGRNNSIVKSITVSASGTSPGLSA


Assays:
Cynomolgus CEACAM5 [1] = target: T4, Cynomolgus CEACAM5 (cynomolgus monkey); assay: SPR, anti-hFc capture, 37C, pH 6.0
T4 construct: also called cyno CEACAM5
Procedure: (§1) To determine the affinity and cross-reactivity of CEACAM5 TriNKET molecules, AB0411, AB0466, or AB0621 TriNKETs were captured using an anti-human Fc capture antibody (Cytiva, #BR100839) immobilized onto a Biacore CM5 standard surface sensor chip following manufacturer instructions. Human or cynomolgus CEACAM5 were titrated over captured AB0411, AB0466, and AB0621 as 2-fold serial dilutions starting from 300 nM. Association was monitored for 300 sec and dissociation was monitored for 600 sec. The assay was run at 37° C. at pH 7.4 and 6.0. The surface of the CM5 chip was regenerated with 10 mM glycine pH 1.5 for 20 sec at 100 μL/min.

Human CEACAM8 = target: T1, Human CEACAM8; assay: SPR, 37C, pH 7.4
human FcγRIIIB = human FcγRIIIB (human, UniProt O75015 17-200, limits assumed); assay: SPR, AB0621 on Protein A chip, 25C, pH 7.4
Procedure: (§2) AB0621 was captured onto a Protein A chip (Cytiva, #29127556). Human FcγRs were titrated over captured AB0621 as 3-fold serial dilutions starting from 300 nM for FcγRI, 1000 nM for FcγRIIA R131 and H131, and 3000 nM for FcγRIIB and FcγRIIIB. Association was monitored for 120 sec and dissociation was monitored for 180 sec. Assays were run at 25° C. at pH 7.4. The surface of the chip was regenerated with 10 mM glycine pH 1.5 for 20 sec at 30 μL/min.

human FcγRIIA H131 = target: T2, human FcγRIIA H131; assay: SPR, AB0621 on Protein A chip, 25C, pH 7.4
Procedure: as §2

Cynomolgus CEACAM5 [2] = target: T4, Cynomolgus CEACAM5; assay: SPR, anti-hFc capture, 37C, pH 7.4
Procedure: as §1

Cyno FcRn = Cyno FcRn (cynomolgus monkey, UniProt Q8SPV9 24-297; Q8SPW0 21-119, limits assumed); assay: SPR, anti-kappa capture, 25C, pH 6.0; pH 6.0
Procedure: (§3) Anti-kappa light chain antibody was immobilized onto a CM5 chip following a standard amine-coupling protocol. AB0621 was captured onto the chip and human or cynomolgus FcRn was titrated from 2000 nM as 2-fold serial dilutions. Association was monitored for 120 sec and dissociation was monitored for 180 sec. Assays were run at 25° C. at both pH 7.4 and pH 6.0. The surface of the chip was regenerated with two pulses of 10 mM glycine pH 1.5 for 20 sec at 30 μL/min followed by 10 mM NaOH for 20 sec at 30 μL/min.

Human FcRn = Human FcRn (human, UniProt P55899 24-297; P61769 21-119, limits assumed); assay: SPR, anti-kappa capture, 25C, pH 6.0; pH 6.0
Procedure: as §3

[3] = target: T5, human CD16A (FcγRIIIA) V158 (human, UniProt P08637 17-208, limits assumed, biotinylated in the assay of Table 21); assay: SPR (Biacore), AB0264 captured on a CM5 chip with immobilised human CEACAM5; 2 uM CD16A, then premix of 2 uM CD16A and 2 uM NKG2D-His
T5 construct: also called CD16A (V158/V176)
From the text: This surface was used to first stably capture AB0264 onto the chip surface. […] The ratio of binding signals (which are proportional to MWs) was approximately 5:1:1 which is consistent with a 1:1:1 molar stoichiometry of complex bound on the CEACAM5 surface.

Human CEACAM5 (K398) = target: T3, Human CEACAM5 (K398); assay: SPR, anti-hFc capture, 37C, pH 7.4
Procedure: as §1

T5 sequence (P08637 17-208 F176V limits assumed): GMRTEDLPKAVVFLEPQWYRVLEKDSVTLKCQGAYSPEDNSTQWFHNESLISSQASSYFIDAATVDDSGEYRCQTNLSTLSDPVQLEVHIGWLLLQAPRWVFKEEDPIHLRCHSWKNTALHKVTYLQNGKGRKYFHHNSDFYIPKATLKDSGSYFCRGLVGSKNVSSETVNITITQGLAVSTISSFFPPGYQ
Chain of human FcγRIIIB (O75015 17-200 limits assumed): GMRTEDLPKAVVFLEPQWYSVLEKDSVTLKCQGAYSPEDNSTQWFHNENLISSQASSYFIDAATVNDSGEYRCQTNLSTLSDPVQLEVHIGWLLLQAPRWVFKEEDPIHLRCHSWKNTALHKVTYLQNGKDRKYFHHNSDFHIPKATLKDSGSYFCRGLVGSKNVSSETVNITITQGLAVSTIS
Chain of Cyno FcRn (Q8SPV9 24-297 limits assumed, chain 1 of 2): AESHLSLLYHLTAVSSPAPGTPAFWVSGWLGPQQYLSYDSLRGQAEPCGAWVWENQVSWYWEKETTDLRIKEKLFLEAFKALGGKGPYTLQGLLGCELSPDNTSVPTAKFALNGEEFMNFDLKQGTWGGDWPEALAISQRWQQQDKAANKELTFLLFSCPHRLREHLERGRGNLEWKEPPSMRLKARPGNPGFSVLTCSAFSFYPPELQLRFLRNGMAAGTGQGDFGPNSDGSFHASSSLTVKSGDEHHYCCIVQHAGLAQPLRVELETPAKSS
Chain of Cyno FcRn (Q8SPW0 21-119 limits assumed, chain 2 of 2): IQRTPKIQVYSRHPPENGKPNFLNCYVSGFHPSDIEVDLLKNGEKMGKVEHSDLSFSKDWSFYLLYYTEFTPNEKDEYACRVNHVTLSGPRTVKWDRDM
Chain of Human FcRn (P55899 24-297 limits assumed, chain 1 of 2): as the sequence (Q8SPV9 24-297 limits assumed, chain 1 of 2) above, with D39N, Q44E, S99G, G189S, N190S, M217L, T269S counted along it
Chain of Human FcRn (P61769 21-119 limits assumed, chain 2 of 2): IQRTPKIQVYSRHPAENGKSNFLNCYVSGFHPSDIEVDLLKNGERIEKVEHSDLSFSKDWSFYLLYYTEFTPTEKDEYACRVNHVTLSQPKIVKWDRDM

| Binder | Kd (Cynomolgus CEACAM5 [1]) [nM] | kon (Cynomolgus CEACAM5 [1]) [M⁻¹ s⁻¹] | binding result (Human CEACAM8) | binding result (human FcγRIIIB) | Kd (human FcγRIIA H131) [nM] | Kd (Cynomolgus CEACAM5 [2]) [nM] | kon (Cynomolgus CEACAM5 [2]) [M⁻¹ s⁻¹] | Kd (Cyno FcRn) [nM] | Kd (Human FcRn) [nM] | binding result [3] | Kd (Human CEACAM5 (K398)) [nM] | kon (Human CEACAM5 (K398)) [M⁻¹ s⁻¹] |
| --- | --- | --- | --- | --- | --- | --- | --- | --- | --- | --- | --- | --- |
| AB0621 F3' CEACAM5 TriNKET (bispecific antibody, human IgG1, kappa) DIVMTQSPDSLAVSLGERATINCKSSHSLLYGNFQNNYLAWYQQKPGQPPKLLIYWASTRESGVPDRFSGSGSGTDFTLTISSLQAEDVAVYYCQQYYSYPYTFGCGTKLEIKGGGGSGGGGSGGGGSGGGGSQVQLVQSGAEVKKPGASVKVSCKASGYTFTAYTIHWVRQAPGQCLEWMGYINPSSGYTEYNQKFKDRTTLTADTSISTAYMELSRLRSDDTAVYYCTREGGLLWFDYWGQGTLVTVSSGSDKTHTCPPCPAPELLGGPSVFLFPPKPKDTLMISRTPEVTCVVVDVSHEDPEVKFNWYVDGVEVHNAKTKPREEQYNSTYRVVSVLTVLHQDWLNGKEYKCKVSNKALPAPIEKTISKAKGQPREPRVYTLPPCRDELTKNQVSLTCLVKGFYPSDIAVEWESNGQPENNYKTTPPVLVSDGSFTLYSKLTVDKSRWQQGNVFSCSVMHEALHNHYTQKSLSLSPG heavy: EVQLVESGGGLVKPGGSLRLSCAASGFTFSSYSMNWVRQAPGKGLEWVSSISSSSSYIYYADSVKGRFTISRDNAKNSLYLQMNSLRAEDTAVYYCARGAPIGAAAGWFDPWGQGTLVTVSSASTKGPSVFPLAPSSKSTSGGTAALGCLVKDYFPEPVTVSWNSGALTSGVHTFPAVLQSSGLYSLSSVVTVPSSSLGTQTYICNVNHKPSNTKVDKKVEPKSCDKTHTCPPCPAPELLGGPSVFLFPPKPKDTLMISRTPEVTCVVVDVSHEDPEVKFNWYVDGVEVHNAKTKPREEQYNSTYRVVSVLTVLHQDWLNGKEYKCKVSNKALPAPIEKTISKAKGQPREPQVCTLPPSRDELTENQVSLTCLVKGFYPSDIAVEWESNGQPENNYKTTPPVLDSDGSFFLYSWLTVDKSRWQQGNVFSCSVMHEALHNHYTQKSLSLSPG light: DIQMTQSPSSVSASVGDRVTITCRASQGISSWLAWYQQKPGKAPKLLIYAASSLQSGVPSRFSGSGSGTDFTLTISSLQPEDFATYYCQQGVSFPRTFGGGTKVEIKRTVAAPSVFIFPPSDEQLKSGTASVVCLLNNFYPREAKVQWKVDNALQSGNSQESVTEQDSKDSTYSLSSTLTLSKADYEKHKVYACEVTHQGLSSPVTKSFNRGEC | 6.5 | 130000 | no binding (tested: up to 600 and 1200 nM) | no binding (tested: titrated from 3000 nM) | 600 | 14 | 61000 | 310 | 440 |  |  |  |
| AB0264 F3' CEACAM5 TriNKET (bispecific antibody, human IgG1, kappa) DIVMTQSPDSLAVSLGERATINCKSSHSLLYGNFQNNYLAWYQQKPGQPPKLLIYWASTRESGVPDRFSGSGSGTDFTLTISSLQAEDVAVYYCQQYYSYPYTFGCGTKLEIKGGGGSGGGGSGGGGSGGGGSQVQLVQSGAEVKKPGASVKVSCKASGYTFTAYTIHWVRQAPGQCLEWMGYINPSSGYTEYNQKFKDRTTLTADTSIPTAYMELSRLRSDDTAVYYCTREGGLLWFDYWGQGTLVTVSSGSDKTHTCPPCPAPELLGGPSVFLFPPKPKDTLMISRTPEVTCVVVDVSHEDPEVKFNWYVDGVEVHNAKTKPREEQYNSTYRVVSVLTVLHQDWLNGKEYKCKVSNKALPAPIEKTISKAKGQPREPRVYTLPPCRDELTKNQVSLTCLVKGFYPSDIAVEWESNGQPENNYKTTPPVLVSDGSFTLYSKLTVDKSRWQQGNVFSCSVMHEALHNHYTQKSLSLSPG heavy: EVQLVESGGGLVKPGGSLRLSCAASGFTFSSYSMNWVRQAPGKGLEWVSSISSSSSYIYYADSVKGRFTISRDNAKNSLYLQMNSLRAEDTAVYYCARGAPIGAAAGWFDPWGQGTLVTVSSASTKGPSVFPLAPSSKSTSGGTAALGCLVKDYFPEPVTVSWNSGALTSGVHTFPAVLQSSGLYSLSSVVTVPSSSLGTQTYICNVNHKPSNTKVDKKVEPKSCDKTHTCPPCPAPELLGGPSVFLFPPKPKDTLMISRTPEVTCVVVDVSHEDPEVKFNWYVDGVEVHNAKTKPREEQYNSTYRVVSVLTVLHQDWLNGKEYKCKVSNKALPAPIEKTISKAKGQPREPQVCTLPPSRDELTENQVSLTCLVKGFYPSDIAVEWESNGQPENNYKTTPPVLDSDGSFFLYSWLTVDKSRWQQGNVFSCSVMHEALHNHYTQKSLSLSPG light: DIQMTQSPSSVSASVGDRVTITCRASQGISSWLAWYQQKPGKAPKLLIYAASSLQSGVPSRFSGSGSGTDFTLTISSLQPEDFATYYCQQGVSFPRTFGGGTKVEIKRTVAAPSVFIFPPSDEQLKSGTASVVCLLNNFYPREAKVQWKVDNALQSGNSQESVTEQDSKDSTYSLSSTLTLSKADYEKHKVYACEVTHQGLSSPVTKSFNRGEC |  |  |  |  |  |  |  |  |  | binds | 13 | 91000 |

Reference: patent US20240124607A1 (Merck Sharp & Dohme, published 2024)
